Reference: article PMC7069974

Target: His-flXPA (human) (UniProt P23025)
Assay: AFM
Conditions: single dG-C8-AAF at 30% from 3' end; EMSA: 8 nM DNA, 20 mM HEPES pH 7.5, 150 mM NaCl, 5 mM DTT, 0.5 mg/ml BSA, 5% glycerol, 25 min at room temperature; gel 5% native, 0.5x TBE, 4 C. AFM: 100 nM …; scale: fold specificity for dG-C8-AAF over non-damaged DNA

Sequence of His-flXPA (human) (P23025 whole entry): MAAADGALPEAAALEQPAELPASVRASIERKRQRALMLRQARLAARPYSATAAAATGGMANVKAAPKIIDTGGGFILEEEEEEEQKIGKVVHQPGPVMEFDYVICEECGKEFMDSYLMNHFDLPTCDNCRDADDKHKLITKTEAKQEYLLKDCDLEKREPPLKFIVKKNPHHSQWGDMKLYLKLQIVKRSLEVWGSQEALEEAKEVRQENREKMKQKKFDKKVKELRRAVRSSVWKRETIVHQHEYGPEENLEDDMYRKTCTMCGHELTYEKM

## AAF538
  binding signal: 660
